Results taken from paper PMC12075613.

B1: RPL18 promoter 26-bp CAAAAC fragment (dsDNA)
DNA 1: GATGGAGGAAGCAAAACATTGACCAT
DNA 2: ATGGTCAATGTTTTGCTTCCTCCATC
B2: RPL18 26-bp mutant competitor (CAAAAC to ATCGTG) (dsDNA)
DNA 1: GATGGAGGAAGATCGTGATTGACCAT
DNA 2: ATGGTCAATCACGATCTTCCTCCATC

How the values were obtained:
[1] = target: T1, LIMYB (L10-[…] MYB DOMAIN-CONTAINING PROTEIN) (Arabidopsis thaliana, UniProt Q9FFJ8 1-449); test: EMSA
T1 sequence: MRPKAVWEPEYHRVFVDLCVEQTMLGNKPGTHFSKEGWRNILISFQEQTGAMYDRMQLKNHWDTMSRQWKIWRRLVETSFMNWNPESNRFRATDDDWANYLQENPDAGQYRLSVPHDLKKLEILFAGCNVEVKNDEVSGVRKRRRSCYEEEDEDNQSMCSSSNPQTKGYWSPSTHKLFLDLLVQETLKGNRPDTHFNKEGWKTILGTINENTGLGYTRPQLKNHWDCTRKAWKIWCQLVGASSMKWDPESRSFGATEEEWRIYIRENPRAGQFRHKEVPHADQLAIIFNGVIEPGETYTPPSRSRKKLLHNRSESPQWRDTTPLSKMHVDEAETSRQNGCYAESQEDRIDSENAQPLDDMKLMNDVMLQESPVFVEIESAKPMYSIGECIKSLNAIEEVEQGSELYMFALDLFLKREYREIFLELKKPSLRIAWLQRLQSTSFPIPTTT

[2] = target: T1, LIMYB (L10-[…] MYB DOMAIN-CONTAINING …); test: competition

| Binder | binding result [1] | binding result [2] |
| --- | --- | --- |
| B1 | binds | – |
| B2 | – | no binding |
